Laboratory results taken from US20230012273A1 (Boehringer Ingelheim, published 2023).
Positions count from the first letter of the chain named.

T1: cynomolgus SIRPβ1v3 (XP_005568593) extracellular domain + His-tag (cynomolgus monkey)
T1 construct: SPR analyte; also called Cyno SIRPβ1v3 XP_005568593; cynoSIRPβ1v3; not shown: His-tag
T1 chain: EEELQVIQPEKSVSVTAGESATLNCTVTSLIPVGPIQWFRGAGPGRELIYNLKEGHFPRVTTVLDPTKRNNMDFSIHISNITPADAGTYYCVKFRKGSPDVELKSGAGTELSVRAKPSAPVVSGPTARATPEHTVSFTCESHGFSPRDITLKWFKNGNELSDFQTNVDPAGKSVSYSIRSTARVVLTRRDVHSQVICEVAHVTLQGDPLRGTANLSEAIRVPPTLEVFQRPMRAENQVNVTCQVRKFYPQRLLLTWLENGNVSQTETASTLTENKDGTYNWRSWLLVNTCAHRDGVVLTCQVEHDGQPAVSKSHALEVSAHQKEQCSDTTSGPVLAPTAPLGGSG

T2: cynomolgus SIRPα (EGM_02252) extracellular domain + His-tag (cynomolgus monkey)
T2 construct: SPR analyte; also called CySIRPα EGM_02252; cynoSIRPα; not shown: His-tag
T2 chain: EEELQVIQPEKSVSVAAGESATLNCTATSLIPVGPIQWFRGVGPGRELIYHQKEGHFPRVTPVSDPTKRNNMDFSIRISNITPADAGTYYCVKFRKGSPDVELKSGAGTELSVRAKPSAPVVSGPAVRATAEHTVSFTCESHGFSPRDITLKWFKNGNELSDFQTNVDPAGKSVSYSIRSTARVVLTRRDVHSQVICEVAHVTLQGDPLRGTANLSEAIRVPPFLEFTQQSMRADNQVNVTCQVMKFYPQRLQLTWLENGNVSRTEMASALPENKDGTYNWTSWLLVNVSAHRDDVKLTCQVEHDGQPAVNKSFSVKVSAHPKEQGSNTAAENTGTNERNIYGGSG

T3: cynomolgus SIRPγ (XP_005568591) extracellular domain + His-tag (cynomolgus monkey, UniProt Q9P1W8 29-359 (human entry))
T3 construct: SPR analyte; also called Cyno SIRPγ XP_005568591; cynoSIRPγ; not shown: His-tag
T3 chain: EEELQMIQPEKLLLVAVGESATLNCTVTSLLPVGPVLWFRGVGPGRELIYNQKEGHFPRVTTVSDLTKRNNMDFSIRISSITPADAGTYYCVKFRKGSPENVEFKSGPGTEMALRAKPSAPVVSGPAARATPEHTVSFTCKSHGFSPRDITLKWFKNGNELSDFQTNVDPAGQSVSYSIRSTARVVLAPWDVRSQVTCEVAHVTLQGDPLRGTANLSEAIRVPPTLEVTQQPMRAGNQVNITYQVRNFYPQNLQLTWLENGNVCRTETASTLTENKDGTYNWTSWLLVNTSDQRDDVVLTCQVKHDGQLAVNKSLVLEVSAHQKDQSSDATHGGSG

T4: cynomolgus SIRPβ1 (XP_005568598) extracellular domain + His-tag (cynomolgus monkey)
T4 construct: SPR analyte; also called Cyno SIRPβ1 XP_005568598; cynoSIRPβ1; not shown: His-tag
T4 chain: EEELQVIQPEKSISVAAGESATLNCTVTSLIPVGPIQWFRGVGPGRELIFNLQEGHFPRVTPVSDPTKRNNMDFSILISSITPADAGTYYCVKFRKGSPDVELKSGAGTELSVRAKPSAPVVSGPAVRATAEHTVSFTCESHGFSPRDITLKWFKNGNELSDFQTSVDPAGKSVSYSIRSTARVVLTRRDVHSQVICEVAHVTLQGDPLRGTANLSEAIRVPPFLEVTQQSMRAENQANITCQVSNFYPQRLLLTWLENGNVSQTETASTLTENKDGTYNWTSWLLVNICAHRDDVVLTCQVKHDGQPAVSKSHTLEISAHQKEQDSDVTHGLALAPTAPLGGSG

B1: Antibody E9 (antibody, human IgG1, kappa, L234A L235A, V domains shown)
VH: QVQLQESGPGLVRPSETLSLTCTVSGGSIRNYYWSWIRQPPGKGLEWIGFIYYNGRTFYNPSLKSRVTISLDMSINQFSLKMTSVTAADTAVYYCARVRAYSGIGLDGTDVWGQGTTVTVSS
VL: DIVMTQSPLSLPVTPGEPASISCKSSQSLLYSNAYNYLDWYLQRPGQSPQLLIYLGSNRASGVPDRFSGSGSGTDFTLKISRVEAEDVGVYYCMQALQTPLTFGGGTKVEIKR
B2: Antibody E4 (antibody, human IgG1, kappa, L234A L235A, V domains shown)
VH: B1 VH with I75K
VL: B1 VL with A34G, N36A
B3: Antibody E10 (antibody, human IgG1, kappa, L234A L235A, V domains shown)
VH: B1 VH with M73T, I75K
VL: B1 VL with A34G, N36A
B4: Antibody E15 (antibody, human IgG1, kappa, L234A L235A, V domains shown)
VH: B1 VH with N54T
VL: B1 VL with A34G, N36A
B5: Antibody E19 (antibody, human IgG1, kappa, L234A L235A, V domains shown)
VH: B1 VH with N54T, I75K
VL: B1 VL with A34G, N36A, L55Q, Y91F
B6: Antibody E17 (antibody, human IgG1, kappa, L234A L235A, V domains shown)
VH: B1 VH with I48M, Y53D, I75M
VL: B1 VL
B7: Antibody E12 (antibody, human IgG1, kappa, L234A L235A, V domains shown)
VH: B1 VH with I75K
VL: B1 VL
B8: Antibody E14 (antibody, human IgG1, kappa, L234A L235A, V domains shown)
VH: B1 VH with M73K, I75K
VL: B1 VL
B9: Antibody E18 (antibody, human IgG1, kappa, L234A L235A, V domains shown)
VH: B1 VH with N54T, I75K
VL: B1 VL with A34G, N36A
B10: Antibody E21 (antibody, human IgG1, kappa, L234A L235A, V domains shown)
VH: B1 VH with N54T, I75K
VL: B1 VL
B11: Antibody E13 (antibody, human IgG1, kappa, L234A L235A, V domains shown)
VH: B1 VH with N54T
VL: B1 VL with A34G, N36A, L55Q, Y91F
B12: Antibody E20 (antibody, human IgG1, kappa, L234A L235A, V domains shown)
VH: B1 VH with N54T
VL: B1 VL
B13: Antibody E11 (antibody, human IgG1, kappa, L234A L235A, V domains shown)
VH: B1 VH with I48M, Y53D, I75M
VL: B1 VL with A34G, N36A

Key:
[1] = molecular target: T1, cynomolgus SIRPβ1v3 (XP_005568593) …; test: SPR, antibody captured, ECD-His analyte
Experimental: (§1) The binding affinity of anti-SIRPα antibodies to the various SIRPα analytes is determined by surface plasmon resonance (SPR) using a ProteOn XPR36 (Bio-Rad). The running buffer for this experiment and all dilutions (except where stated) are done in 1×HBS-EP+. […] The sensorchip is deactivated with 1M ethanolamine HCl for 420 sec at a flowrate of 10 μl/min.
(§2) The analyte is injected over the captured antibody for 300 sec at a flowrate of 30 μl/min. The dissociation is done for 600 sec. Two-fold serial dilutions of each SIRP protein (Extracellular Domain+His-Tag) are injected as analyte with the highest concentrations indicated in table 36 below.

[2] = molecular target: T2, cynomolgus SIRPα (EGM_02252) …; test: SPR
Experimental: as §1, §2

[3] = molecular target: T3, cynomolgus SIRPγ (XP_005568591) …; test: SPR
Experimental: as §1, §2

[4] = molecular target: T4, cynomolgus SIRPβ1 (XP_005568598) …; test: SPR
Experimental: as §1, §2

Binder	Kd [1] [nM]	binding result [2]	binding result [3]	binding result [4]
B1	25.1	no binding (tested: 1000 nM)	no binding (tested: 1000 nM)	no binding (tested: 1000 nM)
B2	13.1	no binding (tested: 1000 nM)	no binding (tested: 1000 nM)	no binding (tested: 1000 nM)
B3	15.7	no binding (tested: 1000 nM)	no binding (tested: 1000 nM)	no binding (tested: 1000 nM)
B4	25.8	no binding (tested: 1000 nM)	no binding (tested: 1000 nM)	no binding (tested: 1000 nM)
B5	25	no binding (tested: 1000 nM)	no binding (tested: 1000 nM)	no binding (tested: 1000 nM)
B6	27	no binding (tested: 1000 nM)	no binding (tested: 1000 nM)	no binding (tested: 1000 nM)
B7	27.9	no binding (tested: 1000 nM)	no binding (tested: 1000 nM)	no binding (tested: 1000 nM)
B8	51.9	no binding (tested: 1000 nM)	no binding (tested: 1000 nM)	no binding (tested: 1000 nM)
B9	27.8	no binding (tested: 1000 nM)	no binding (tested: 1000 nM)	no binding (tested: 1000 nM)
B10	56.5	no binding (tested: 1000 nM)	no binding (tested: 1000 nM)	no binding (tested: 1000 nM)
B11	20.5	no binding (tested: 1000 nM)	no binding (tested: 1000 nM)	no binding (tested: 1000 nM)
B12	57.4	no binding (tested: 1000 nM)	no binding (tested: 1000 nM)	no binding (tested: 1000 nM)
B13	13.2	no binding (tested: 1000 nM)	no binding (tested: 1000 nM)	no binding (tested: 1000 nM)
